The labels stand for the following.
B1: library; numbered along this chain (parent)
chain: MRKPRAAVGSGHRKQAASQEGRQKHAKNNSQAKPSACDGLARQPEEVVLQASVSSYHLFRDVAEVTAFRGSLLSWYDQEKRDLPWRRRAEDEMDLDRRAYAVWVSEVMLQQTQVATVINYYTGWMQKWPTLQDLASASLEEVNQLWAGLGYYSRGRRLQEGARKVVEELGGHMPRTAETLQQLLPGVGRYTAGAIASIAFGQATGVVDGNVARVLCRVRAIGADPSSTLVSQQLWGLAQQLVDPARPGDFNQAAMELGATVCTPQRPLCSQCPVESLCRARQRVEQEQLLASGSLSGSPDVEECAPNTGQCHLCLPPSEPWDQTLGVVNFPRKASRKPPREESSATCVLEQPGALGAQILLVQRPNSGLLAGLWEFPSVTWEPSEQLQRKALLQELQRWAGPLPATHLRHLGEVVHTFSHIKLTYQVYGLALEGQTPVTTVPPGARWLTQEEFHTAAVSTAMKKVFRVYQGQQPGTCMGSKRSQVSSPCSRKKPRMGQQVLDNFFRSHISTDAHSLNSAAQ

We go through 6 variants from the supplement of paper PMC11908140.
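Further: cells sorted at 72 h after reporter transfection.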

The data set covers variants of B1. Put plainly: 8OG:A repair function score (normalized; synonymous = 0, nonsense = -1) (normalized log-likelihood score); higher = more repair activity (WT-like). The note with it: with 8OG:A DNA repair reporter (GFP) in HEK-293 MUTYH KO cells. The procedure, abridged: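 After 72 h, viable mCherry+ cells were split into GFP+ (repair) and GFP− bins in three replicates per tile. These cells were MUTYH knockout HEK-293 cells holding lentiviral MUTYH cDNA NNN codon-scan libraries, kept in 10 pg/ml doxycycline and co-transfected with mCherry plus an 8OG:A GFP repair reporter. Sequencing of tile amplicons gave per-tile Rosace fitness scores, normalized into a repair function score anchored on synonymous and nonsense distributions. Synonymous medians were fixed at 0, nonsense at -1, and variants under 300 counts per million at the start were removed.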
As for MRKPRAAVGSGHRKQAASQEGRQKHAKNNSQAKPSACDGLARQPEEVVLQASVSSYHLFRDVAEVTAFRGSLLSWYDQEKRDLPWRRRAEDEMDLDRRAYAVWVSEVMLQQTQVATVINYYTGWMQKWPTLQDLASASLEEVNQLWAGLGYYSRGRRLQEGARKVVEELGGHMPRTAETLQQLLPGVGRYTAGAIASIAFGQATGVVDGNVARVLCRVRAIGADPSSTLVSQQLWGLAQQLVDPARPGDFNQAAMELGATVCTPQRPLCSQCPVESLCRARQRVEQELLLASGSLSGSPDVEECAPNTGQCHLCLPPSEPWDQTLGVVNFPRKASRKPPREESSATCVLEQPGALGAQILLVQRPNSGLLAGLWEFPSVTWEPSEQLQRKALLQELQRWAGPLPATHLRHLGEVVHTFSHIKLTYQVYGLALEGQTPVTTVPPGARWLTQEEFHTAAVSTAMKKVFRVYQGQQPGTCMGSKRSQVSSPCSRKKPRMGQQVLDNFFRSHISTDAHSLNSAAQ [Q288L], the “8OG:A repair function score” value was -0.0159.

Consider MRKPRAAVGSGHRKQAASQEGRQKHAKNNSQAKPSACDGLARQPEEVVLQASVSSYHLFRDVAEVTAFRGSLLSWYDQEKRDLPWRRRAEDEMDLDRRAYAVWVSEVMLQQTQVATVINYYTGWMQKWPTLQDLASASLEEVNQLWAGLGYYSRGRRLQEGARKVVEELGGHMPRTAETLQQLLPGVGRYTAGAIASIAFGQATGVVDGNVARVLCRVRAIGADPSSTLVSQQLWGLAQQLVDPARPGDFNQAAMELGATVCTPQRPKCSQCPVESLCRARQRVEQEQLLASGSLSGSPDVEECAPNTGQCHLCLPPSEPWDQTLGVVNFPRKASRKPPREESSATCVLEQPGALGAQILLVQRPNSGLLAGLWEFPSVTWEPSEQLQRKALLQELQRWAGPLPATHLRHLGEVVHTFSHIKLTYQVYGLALEGQTPVTTVPPGARWLTQEEFHTAAVSTAMKKVFRVYQGQQPGTCMGSKRSQVSSPCSRKKPRMGQQVLDNFFRSHISTDAHSLNSAAQ [L268K], for which the “8OG:A repair function score” value worked out at 0.0167.

In the case of MRKPRAAVGSGHRKQAASQEGRQKHAKNNSQAKPSACDGLARQPEEVVLQASVSSYHLFRDVAEVTAFRGSLLSWYDQEKRDLPWRRRAEDEMDLDRRAYAVWVSEVMLQQTQVATVINYYTGWMQKWPTLQDLASASLEEVNQLWAGLGYYSRGRRLQEGARKVVEELGGHMPRTAETLQQLLPGVGRYTAGAIASIAFGQATGVVDGNVARVLCRVRAIGADPSSTLVSQQLWGLAQQLVDPARPGDFNQAAMELGATVCTPQRPLCSQCPVESLCRARQRVEQEQLLASGSLSGSPDVEECAPNTGQCHLCLPPSEPWDQTLGVVNFPRKASRKPPREVSSATCVLEQPGALGAQILLVQRPNSGLLAGLWEFPSVTWEPSEQLQRKALLQELQRWAGPLPATHLRHLGEVVHTFSHIKLTYQVYGLALEGQTPVTTVPPGARWLTQEEFHTAAVSTAMKKVFRVYQGQQPGTCMGSKRSQVSSPCSRKKPRMGQQVLDNFFRSHISTDAHSLNSAAQ [E342V], the “8OG:A repair function score” value is -0.0483.

For the variant MRKPRAAVGSGHRKQAASQEGRQKHAKNNSQAKPSACDGLARQPEEVVLQASVSSYHLFRDVAEVTAFRGSLLSWYDQEKRDLPWRRRAEDEMDLDRRAYAVWVSEVMLQQTQVATVINYATGWMQKWPTLQDLASASLEEVNQLWAGLGYYSRGRRLQEGARKVVEELGGHMPRTAETLQQLLPGVGRYTAGAIASIAFGQATGVVDGNVARVLCRVRAIGADPSSTLVSQQLWGLAQQLVDPARPGDFNQAAMELGATVCTPQRPLCSQCPVESLCRARQRVEQEQLLASGSLSGSPDVEECAPNTGQCHLCLPPSEPWDQTLGVVNFPRKASRKPPREESSATCVLEQPGALGAQILLVQRPNSGLLAGLWEFPSVTWEPSEQLQRKALLQELQRWAGPLPATHLRHLGEVVHTFSHIKLTYQVYGLALEGQTPVTTVPPGARWLTQEEFHTAAVSTAMKKVFRVYQGQQPGTCMGSKRSQVSSPCSRKKPRMGQQVLDNFFRSHISTDAHSLNSAAQ [Y121A], the “8OG:A repair function score” value is -0.942.

Regarding MRKPRAAVGSGHRKQAASQEGRQKHAKNNSQAKPSACDGLARQPEEVVLQASVSSYHLFRDVAEVTAFRGSLLSWYDQEKRDLPWRRRAEDEMDLDRRAYAVWVSEVMLQQTQVATVINYYTGWMQKWPTLQDLASASLEEVNQLWAGLGYYSRGRRLQEGARKVVEELGGHMPRTAETLQQLLPGVGRYTAGAIASIAFGQATGVVDGNVARVLCRVRAIGADPSSTLVSQQLWGLAQQLVDPARPGDFNQAAMELGATVCTPQRPLCSQCPVESLCRARQRVEQEQLLASGSLSGSPDVEECAPNTGQCHLCLPPSEPWDQTLGVVNFPRKASRKPPREESSATCVLEQPGALGAQILLVQRPNSGLLAGLWEFPSVTWEPSEQLQRKALLQELQRWAGPLPATHLRHLGEVVHTFSHIKLTYQVYGLALEGQTPVTTVPPGARWLTQEEFHTAAVSTAMKKVFRVYQGQQPGTCMGSKRNQVSSPCSRKKPRMGQQVLDNFFRSHISTDAHSLNSAAQ [S483N], the “8OG:A repair function score” value stood at 0.0224.

Turning to MRKPRAAVGSGHRKQAASQEGRQKHAKNNSQAKPSACDGLARQPEEVVLQASVSSYHLFRDVAEVTAFRGSLLSWYDQEKRDLPWRRRAEDEMDLDRRAYAVWVSEVMLQQTQVATVINYYTGWMQKWPTLQDLASASLEEVNQLWAGLGYYSRGRRLQEGARKVVEELGGHMPRTAETLQQLLPGVGRYTAGAIASIAFGQATGVVDGNVARVLCRVRAIGADPSSTLVSQQLWGLAQQLVDPARPGDFNQAAMELGATVCTPQRPLCSQCPVESLCRARQRVEQEQLLASGSLSGSPDVEECAPNTGQNHLCLPPSEPWDQTLGVVNFPRKASRKPPREESSATCVLEQPGALGAQILLVQRPNSGLLAGLWEFPSVTWEPSEQLQRKALLQELQRWAGPLPATHLRHLGEVVHTFSHIKLTYQVYGLALEGQTPVTTVPPGARWLTQEEFHTAAVSTAMKKVFRVYQGQQPGTCMGSKRSQVSSPCSRKKPRMGQQVLDNFFRSHISTDAHSLNSAAQ [C311N], the “8OG:A repair function score” value is -0.628.
